According to patent US9206242B2, “Application of actin-binding protein to disease associated with cell motility” (NATIONAL UNIVERSITY CORPORATION NAGOYA UNIVERSITY, priority 2005, dated 2015):

How the values were obtained:
[1] = system: phosphorylation of Girdin; test: EGF-induced phosphorylation of endogenous Girdin in COS7 cells (immunoprecipitation, Western blot with anti-P-Girdin antibody); format: cell-based; conditions: EGF 50 ng/ml 15 min, PD98059 50 μM
Procedure: Immunoprecipitates with anti-Girdin antibody were subjected to Western blot analyses with anti-P-Girdin and anti-Girdin antibodies. Activation of Akt was monitored by Western blot analyses with anti-phospho Akt antibody.
COS7 cells were transfected with either control or Akt siRNAs, and incubated for 48 hrs. Cells were then stimulated with EGF for 30 min and the phosphorylation of Girdin was analyzed as described in FIG. 2e.
Next, whether the anti-P-Girdin Ab can detect the endogenous Girdin phosphorylated in response to external stimuli that physiologically activate endogenous Akt was given consideration to. […] Furthermore, the phosphorylation of Girdin was inhibited when cells were treated with the PI3K inhibitors LY294002 and Wortmannin, but not with the mitogen-activated protein kinase kinase 1 (MEK1) inhibitor PD98059. It has therefore been concluded that the phosphorylation of Girdin is induced by EGF in a PI3K-dependent manner. […] Moreover, Girdin phosphorylation was undetectable in the cells transfected with Akt small interfering RNA (Akt siRNA). These findings confirmed that Akt activation is necessary for Girdin phosphorylation.

F-actin = F-actin cosedimentation assay; format: binding
Procedure: A fixed amount of GST-CT2 was mixed with various amounts of F-actin, followed by ultracentrifugation. Amounts of the free and bound GST-CT2 were quantified, and the percentage of bound GST-CT2 was plotted against the concentration of F-actin, and the Kd value was calculated by Scatchard analysis.
GST-CT was phosphorylated by Akt in vitro (cf. FIG. 6d, (b)) and was subjected to an actin cosedimentation assay. A fixed amount of GST-CT was phosphorylated in vitro and mixed with various amounts of F-actin, followed by ultracentrifugation. The amount of phosphorylated GST-CT bound to F-actin in the pellet fraction was monitored by Western blot analyses with anti-P-Girdin antibody.
F-actin cosedimentation assays were performed according to the manufacturer's protocol (Cytoskeleton). […] The cosedimented proteins were resolved by SDS-PAGE and detected by either Coomassie Brilliant Blue (CBB) staining or Western blot analyses using anti-GST antibody (Cell Signaling Technology) or anti-phospho Girdin Ab. For quantitative analyses, a fixed concentration of GST-Girdin CT2 (1 μM) was mixed with increasing amounts of F-actin (0-2.5 μM) in polymerization buffer and incubated at room temperature for 30 min. […] Protein bands were detected by CBB staining, and scanned and quantified using the software program WinROOF (Mitani Corp., Fukui, Japan).

[2] = Protein-lipid overlay assay (PIP-Strip), PI(3)P; format: binding; conditions: 4° C.
Procedure: (§1) The lipid binding of both GST-CT and GST-CT ΔPB was detected using anti-Girdin antibody, whereas that of phosphorylated GST-CT was detected by anti-P-Girdin antibody. The various lipids spotted on the membrane are indicated in (d).
(§2) GST fusion proteins were expressed in DH5 ? or BL21-CodonPlus (Stratagene) cells and purified using conventional methods. Binding of the purified GST-CT to phospholipids was examined at 4° C. using a PIP-Strip (Echelon Bioscience) according to the manufacturer's protocol. Bound GST-CT proteins were detected with either anti-Girdin or anti-phospho Girdin antibodies.

[3] = Protein-lipid overlay assay (PIP-Strip), PI(4)P; format: binding; conditions: 4° C.
Procedure: as §1, §2

In the case of COc1cccc(-c2cc(=O)c3ccccc3o2)c1N [PD98059], the “phosphorylation of Girdin” value [1] is reported as “not”.

B1: GST-CT2: purified glutathione S-transferase (GST)-fused CT2, C-terminal half of the Girdin CT domain (protein)
chain: GEFSLLHDHEAWSSSGSSPIQYLKRQTRSSPVLQHKISETLESRHHKIKTGSPGSEVVTLQQFLEESNKLTSVQIKSSSQENLLDEVMKSLSVSSDFLGKDKPVSCGLARSVSGKTPGDFYDRRTTKPEFLRPGPRKTEDTYFISSAGKPTPGTQGKIKLVKESSLSRQSKDSNPYATLPRASSVISTAEGTTRRTSIHDFLTKDSRLPISVDSPPAAADSNTTAASNVDKVQESRNSKSRSREQQSS
modifications: left off: a dimerising Fc or GST
notes: purified glutathione S-transferase (GST)-fused CT2, C-terminal half of the Girdin CT domain
B1 gave a Kd (F-actin; GST-CT2 1 μM, F-actin 0-2.5 μM, Scatchard analysis, read-out: dissociation constant (Kd) for F-actin) of 1030 nM.

B2: phosphorylated GST-CT: purified GST-CT phosphorylated by Akt in vitro (protein)
chain: IMDQYKFYDPSPPRRRGNWITLKMRKLIKSKKDINRERQKSLTLTPTRSDSSEGFLQLPHQDSQDSSSVGSNSLEDGQTLGTKKSSMVALKRLPFLRNRPKDKDKMKACYRRSMSMNDLVQSMVLAGQWTGSTENLEVPDDISTGKRRKELGAMAFSTTAINFSTVNSSAGFRSKQLVNNKDTTSFEDISPQGVSDDSSTGSRVHASRPASLDSGRTSTSNSNNNASLHEVKAGAVNNQSRPQSHSSGEFSLLHDHEAWSSSGSSPIQYLKRQTRSSPVLQHKISETLESRHHKIKTGSPGSEVVTLQQFLEESNKLTSVQIKSSSQENLLDEVMKSLSVSSDFLGKDKPVSCGLARSVSGKTPGDFYDRRTTKPEFLRPGPRKTEDTYFISSAGKPTPGTQGKIKLVKESSLSRQSKDSNPYATLPRASSVISTAEGTTRRTSIHDFLTKDSRLPISVDSPPAAADSNTTAASNVDKVQESRNSKSRSREQQSS
modifications: left off: a dimerising Fc or GST
notes: purified GST-CT phosphorylated by Akt in vitro
In the case of B2, the “binding to PI(3)P” value [2] is reported as “bound to neither”, the “affinity for F-actin after phosphorylation by Akt” value (F-actin; GST-CT phosphorylated in vitro, detected with anti-P-Girdin antibody) is reported as “did not attenuate” and the “binding to PI(4)P” value [3] is reported as “bound to neither”.
